Measurements reported in PMC9896810, “Crk proteins activate the Rap1 guanine nucleotide exchange factor C3G by segregated adaptor-dependent and -independent mechanisms” (Cell Communication and Signaling : CCS, 2023).
Several values for one entry are separate records, joined by “and”; a condition that tells them apart may be missing. Equal values may be shown once.

Experiments:
C3G-AAPA = target: T1, C3G-AAPA (human, UniProt Q13905-1 4-1077, P283A | P284A | L286 | P287 | P289A | P453A | P454A | L456A | P457A | K459A | …); test: ITC; single-PRM mutant of C3G in the cell titrated with CrkL or CrkL-SH3N, 25 °C, 300 mM NaCl, pH 7.5; SEDPHAT, 1:1 heteroassociation model; N is the competent fraction of C3G; conditions: both partners purified
T1 construct: human C3G isoform a, residues 4-1077; only P3 kept, P1, P2 and P4 mutated to Ala; source: E. coli BL21 (DE3), purified (IMAC, TEV digestion, reversed IMAC, SEC); not shown: His, N-terminal, cleaved; Halo, N-terminal, cleaved
T1 sequence (looked up): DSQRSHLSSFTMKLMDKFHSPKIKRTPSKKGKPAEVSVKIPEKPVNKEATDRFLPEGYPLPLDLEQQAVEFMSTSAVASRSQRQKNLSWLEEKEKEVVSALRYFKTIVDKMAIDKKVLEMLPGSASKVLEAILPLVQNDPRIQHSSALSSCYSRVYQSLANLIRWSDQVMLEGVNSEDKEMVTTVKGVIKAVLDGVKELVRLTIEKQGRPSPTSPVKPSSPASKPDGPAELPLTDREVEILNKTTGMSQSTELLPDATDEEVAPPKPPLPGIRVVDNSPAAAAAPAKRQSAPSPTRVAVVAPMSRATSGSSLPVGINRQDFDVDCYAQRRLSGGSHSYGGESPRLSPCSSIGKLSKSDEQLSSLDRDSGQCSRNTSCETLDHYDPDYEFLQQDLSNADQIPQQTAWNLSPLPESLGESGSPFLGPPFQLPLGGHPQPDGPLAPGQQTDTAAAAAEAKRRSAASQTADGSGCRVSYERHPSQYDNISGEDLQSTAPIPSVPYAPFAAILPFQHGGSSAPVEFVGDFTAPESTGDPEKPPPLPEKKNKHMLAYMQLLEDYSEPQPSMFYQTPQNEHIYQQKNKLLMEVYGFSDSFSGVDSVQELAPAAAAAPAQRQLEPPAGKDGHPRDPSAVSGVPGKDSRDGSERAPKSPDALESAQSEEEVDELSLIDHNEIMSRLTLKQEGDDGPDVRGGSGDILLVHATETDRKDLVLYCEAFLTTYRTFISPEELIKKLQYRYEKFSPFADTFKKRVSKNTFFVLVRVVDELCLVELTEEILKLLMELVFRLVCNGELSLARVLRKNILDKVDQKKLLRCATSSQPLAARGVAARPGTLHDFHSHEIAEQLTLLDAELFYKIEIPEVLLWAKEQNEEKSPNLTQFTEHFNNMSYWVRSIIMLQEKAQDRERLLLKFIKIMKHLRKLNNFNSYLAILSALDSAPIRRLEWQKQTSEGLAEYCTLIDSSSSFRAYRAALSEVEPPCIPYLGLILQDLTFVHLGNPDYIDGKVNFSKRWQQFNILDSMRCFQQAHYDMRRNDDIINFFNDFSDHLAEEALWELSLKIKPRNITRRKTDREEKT

[1] = target: T2, C3G (full-length, residues 4-1077) (human, UniProt Q13905-1 4-1077); test: ITC; C3G in the cell titrated with CrkL in the syringe, 25 °C, 300 mM NaCl, pH 7.5; each titration analysed individually with Origin ITC, independent-site model; conditions: both partners purified
T2 construct: also called C3G WT; RapGEF1; source: E. coli BL21 (DE3), purified (IMAC, TEV digestion, reversed IMAC, SEC); not shown: His, N-terminal, cleaved; Halo, N-terminal, cleaved
T2 sequence (looked up): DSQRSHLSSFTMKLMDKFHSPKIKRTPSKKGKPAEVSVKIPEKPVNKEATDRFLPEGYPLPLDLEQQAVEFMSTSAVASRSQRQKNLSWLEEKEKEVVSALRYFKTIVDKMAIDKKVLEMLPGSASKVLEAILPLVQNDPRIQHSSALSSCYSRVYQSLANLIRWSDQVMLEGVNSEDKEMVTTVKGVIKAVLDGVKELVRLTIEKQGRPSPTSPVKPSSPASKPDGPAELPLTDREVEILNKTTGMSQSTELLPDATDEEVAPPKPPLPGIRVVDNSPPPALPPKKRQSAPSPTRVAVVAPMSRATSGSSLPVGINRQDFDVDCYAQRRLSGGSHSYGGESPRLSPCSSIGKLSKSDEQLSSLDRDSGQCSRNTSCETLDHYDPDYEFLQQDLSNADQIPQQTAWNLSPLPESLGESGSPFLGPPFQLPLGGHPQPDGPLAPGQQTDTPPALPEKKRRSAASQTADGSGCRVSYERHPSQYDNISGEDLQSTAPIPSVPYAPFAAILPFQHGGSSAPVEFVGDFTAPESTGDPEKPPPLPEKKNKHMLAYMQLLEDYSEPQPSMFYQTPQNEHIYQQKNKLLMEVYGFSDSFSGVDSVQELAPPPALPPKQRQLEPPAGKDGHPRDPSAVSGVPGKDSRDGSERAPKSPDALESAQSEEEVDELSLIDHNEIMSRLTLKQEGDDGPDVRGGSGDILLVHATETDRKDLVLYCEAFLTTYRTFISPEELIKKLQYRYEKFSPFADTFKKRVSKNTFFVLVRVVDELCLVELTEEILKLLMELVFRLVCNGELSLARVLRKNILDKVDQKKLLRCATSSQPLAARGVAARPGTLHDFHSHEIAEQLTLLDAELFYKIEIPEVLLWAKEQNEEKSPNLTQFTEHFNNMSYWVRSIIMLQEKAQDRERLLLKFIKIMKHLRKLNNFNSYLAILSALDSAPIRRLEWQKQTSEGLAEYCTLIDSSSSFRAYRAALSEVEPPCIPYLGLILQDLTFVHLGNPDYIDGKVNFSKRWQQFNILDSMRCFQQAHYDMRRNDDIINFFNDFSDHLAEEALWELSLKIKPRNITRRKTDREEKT

- Kd (C3G-AAPA): 2100 nM
- Kd [1]: 3300 nM
- stoichiometry N [1]: 3.2 and 2.8 and 2.9
B1: CrkL (full-length) (natural protein, human, UniProt P46109 1-303, looked up)
chain: MSSARFDSSDRSAWYMGPVSRQEAQTRLQGQRHGMFLVRDSSTCPGDYVLSVSENSRVSHYIINSLPNRRFKIGDQEFDHLPALLEFYKIHYLDTTTLIEPAPRYPSPPMGSVSAPNLPTAEDNLEYVRTLYDFPGNDAEDLPFKKGEILVIIEKPEEQWWSARNKDGRVGMIPVPYVEKLVRSSPHGKHGNRNSNSYGIPEPAHAYAQPQTTTPLPAVSGSPGAAITPLPSTQNGPVFAKAIQKRVPCAYDKTALALEVGDIVKVTRMNINGQWEGEVNGRKGLFPFTHVKIFDPQNPDENE
notes: human CrkL, residues 1-303, in pETEV15b; also called Crk-like protein; source: E. coli BL21 (DE3), purified (IMAC, TEV digestion, SEC); not shown: His, N-terminal, cleaved
